This test addresses IraP with a C-terminal His10-tag, purified (E. coli) (UniProt P0AAN9).

Sequence of IraP with a C-terminal His10-tag, purified (E. coli) (P0AAN9 whole entry): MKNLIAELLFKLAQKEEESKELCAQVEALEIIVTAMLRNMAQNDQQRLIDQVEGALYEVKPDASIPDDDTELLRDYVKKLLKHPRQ

With “RssBN, N-terminal domain of RssB (residues 1-129), untagged, purified (from UniProt P0AEV1 1-129) (domain or fragment)”, the rate of σ^S turnover in the presence of IraP and AcP with a 5-fold excess of RssBN (Figure S4) came out at 2 fold.
